Test results published in patent publication US20160340704A1, “METHOD OF MAKING A BENZYLISOQUINOLINE ALKALOID (BIA) METABOLITE, ENZYMES THEREFORE” (VALORBEC SOCIÉTÉ EN COMMANDITE, priority 2014, published 2016).
Like-named read-outs stand apart in the source and are kept apart here.

B1: EX54: CYP719 from Chelidonium majus, SEQ ID NO: 333 (protein, listed as Chelidonium majus)
chain: MEESFWLVAATVLVVFVVAKLLFRKSSSISTMEWPAGPKTLPIIGNLHQLGGAALHVVLANLAKVYGSVMTIWVGAWRPMIVISDIDKAWEVLVNKSSDYSARSLPEITRIISANWKNIMTSDSGPFWQNLRKGLQGGALSPHNVMSQYQLQERDMQNLIKTMRVEASKNNGRIKPLDHLKQETVRLLSRLIFGQDFNDEKLVVGMHHALDDLVRISGYASLADAFKVAENLPSHKKSIREVHELKRRVENLVRPHIVSNPPTNTYLNFLLSQNFSEDLIISAILEVYDLGVDSTASTTVWALTFLVREQKVQEKLYQEIKNLTGGRSTVKVEEVSKMPYLQAVMKETMRMKPIAPMAIPHTAARETSLMGKKIDKGTVVMVNLYAIHHNPNIFPEPYKFMPERFLHGEEQNGGNIKEMEQSLLPFSAGMRICAGMELGKLQLGFALASLVNAFKWECAADGKLPDLSEDHCFILLMKNPLEAKITPRTH
B2: EX94: N-truncated Papaver somniferum stylopine synthase (CYP719A20) with lettuce germacrene A oxidase N-terminal domain, SEQ ID NO: 373 (protein, listed as Papaver somniferum)
chain: MELSITTSIALATIVFFLYKLATRPKSTKKQLPEASRLPIIGHKRKKSSTMVWPTGPKTLPIIGNMHVLGGTALQVVLHNLAKIHGNVMTIWIGSWRPVIVVSDIDRAWEVLVNKSSDYSARDMPEITKIISADWKTISTSDSGPGWSNLRKGLQNVALSPHNLAAQSQFQEKDITKMIQSLKKEAASNNGIVKPIDHLKKATLRLISRLIFGQDFDDDKYVDDMHHAIEELIRVSGYAQLAEAFYYAKYLPSHKKAVRDVEEANQRVKKLVRPFLSLNPPTNTYLHFLNSQKYDEEVIIFAIFEAYLLGVDSTSLTTAWALAFLIREPVVQDKLYQELKNLTAKNDCEIVKVEDLNKLQYLQAVLKETMRMKPIAPLAIPHKACRDTSLKGNKIDQGTQVMVNIYALHHNEKVWKEPFKFMPERFLQTQDVVNGKGMEQSLLPFSAGMRICAGMELGKLQFSFSLANLVNAFEWSCVSDGVLPDMSDQLGFVLLMKTPLQARIVPRV
B3: EX84: Papaver somniferum cheilanthifoline synthase, ADB89213.1, SEQ ID NO: 363 (protein, listed as Papaver somniferum)
chain: MEVTFWLITCGVVVAFALAKLLFGKKSSMSTMEWPSGPKTLPIIGNLHQLGGEAFHVCLANLAKVYGGVFTIWVGSWRPFIVISDVDKAWEVLVNKSSDYSARDMPDITKIISANWKNISHGDSGPFWHNLRKGLQGVALTPFNVASQYHLQERDMQNLIKSMKKKASQKNGILKPLDYVKEETVRLLSRLIFSQEFVDEDFVVGMHQALDELVSISGYASLADAFKFCENLPSHKKTIRAVHAIKIRFDNLIRPHIVSNPPTNTYLHFLLSQDFSEDVIISAILEVYDLGVDSTASTTVWALTFLVREQKIQEKLYREINNVTGGKRPVKVEDLNKLPYLQAVMKETMRMKPIAPMAIPHKASKDTSLMGKKINKGTVVMVNLYAIHHNPAVFPEPYKFMPERFLKDANSDGSLGDIKKMESSLLAFSAGMRICAGMELGKLQLAFGLASLVNEFKWDCVAEGKLPDLSEEHCFILLMKNPLEAKITPRIH
B4: EX46: CYP719 from Corydalis cheilanthifolia, SEQ ID NO: 325 (protein, listed as Corydalis cheilanthifolia)
chain: MVNAVAEILTEKPWLLPATLLAVIAIAKFFLGKSSTMKWPIGPKTLPIIGNMHQLGGTDLQVVLANLAKTYGTIMTIWVGSWRPMIVLSDIEKAWEVLVNKSSDYSGRAMPEITEIISAKGKTISTSDSGPHWSNLRKGLQNVALSPHNIAAQSRFQESDITKMIKTLKQEAASNNGIVQPLDHLKKSTVRLISRLIFGQDFDDDEYVEAMHLAVEELIRVSGYARLAEAFYYAKYLPSHKRAVSEVWEANRRVKRIVKPRLSANPPPNCYLHFLSSQDYSEEMIIFAIFEAYLLGVDSTSSTTAWALGFLIREPKVQERLYQELKNCAGENGLIKVEDINKLPYLQAVLKETMRMKPIAPLAIPHKAVRETSLAGNKVEPGTRVMVNLYAIHHNPKVWIDPHKFKPERFLQGEENGGGNLKLMEQSLLPFSAGMRTCAGMELGKLQFGFSLANLVNAFQWDCAKKGMFPDMSDLLGFVLLMKTPLQAKIVPRGSPSINGY
B5: EX61: CYP719 from Eschscholzia californica, Q50LH3.1, SEQ ID NO: 340 (protein, listed as Eschscholzia californica)
chain: MEEMKILMMNNPWILTATATTLLISIFLFFTRKSSKMVWPAGPKTLPIIGNMHLLGGTALQVVLHNLAKVHGSVMTIWIGSWRPVIVVSDIERAWEVLVNKSSDYSARDMPDITKIISADWKTISTSDSGPHWTNLRKGLQNVALSPHNLAAQFQFQEKDMTKMIQTLQEEARNNNGIVKPLDHMKKATLRLISRLVFGQDFNNDKYVDDMHLAIEELIRVSGYARLAEAFYYAKYLPSHKKAVREVEEAQRRVQNLVSPFLSLNPPTNTYLHFLRSQKYDDEVIIFAIFEAYLLGVDSTSLTTAWALAFLIRESNVQEKLYQELESFASKMDRKILKVEDINKLQYLQAVIKETMRMKPIAPLAIPHKACRDTSLMGKKIDKGTRVMVNIYALHHNKNVFNDPFKFMPERFMKVDSQDANGKAMEQSLLPFSAGMRICAGMELGKLQFSFALANLAYAFKWSCVADGVLPDMSDQLGFVLLMKTPLEARINRRN

Experiments:
nandinine = assay: CYP719 Ring B closure of nandinine to stylopine in GC1333; format: cell-based, Saccharomyces cerevisiae
Protocol: FIG. 11A-B: showing conversion of (S)-cheilanthifoline (FIG. 11A) or (S)-nandinine (FIG. 11B) to (S)-stylopine by purchased CYP719s. Plasmids harboring CYP719s were transformed into GC1333 containing an integrated PsCPR. Strains were incubated with the appropriate BIA overnight, and then total BIAs were extracted and total molar ratios were compared. PsSPSΔN was used as a control.
The 10 CYP719s with 95% activity on Ring A of scoulerine and the 10 CYP719s with activity on Ring B of scoulerine were tested for activity on cheilanthifoline and nandinine, respectively, in order to generate a branched stylopine synthesis pathway. […] CYP719s PsCFS and EX101, capable of converting >98% of scoulerine to cheilanthifoline and nandinine, respectively, were incubated with scoulerine. After 16 h, cells were pelleted and the supernatant fraction was collected. The supernatant was then applied to fresh yeast strains in order to supplement them with either TE containing nandinine or cheilanthifoline as necessary.

[1] = Microsomal cytochrome P450 enzyme assay of PsCFS and PsSPSΔN incubated with (S)-scoulerine; format: biochemical, Papaver somniferum; settings: microsomes with PsCPR; 125 μM (S)-scoulerine, 500 μM NADPH
Protocol: The pESC-CPR vector encoding opium poppy cytochrome P450 reductase (PsCPR) fused to a c-Myc tag was used for the heterologous expression of plant proteins in S. cerevisiae^25. The amplicon was inserted into NotI and SpeI restriction sites of pESC-CPR in-frame with a FLAG-tag sequence yielding pESC-CPR/CFS. […]
Analysis of enzyme assays was performed using an Agilent™ 1200 liquid chromatography system equipped with a 6410 triple-quadrupole mass spectrometer (Agilent Technologies; Santa Clara, Calif.). […] Scoulerine, cheilanthifoline, and stylopine were detected in multiple reaction monitoring (MRM) mode using a collision energy of 25 eV and monitored transitions of m/z 328→178, 326→178 and 324→176, respectively.
Constructs for the heterologous expression of PsCFS and PsSPS in S. cerevisiae were assembled in a vector harbouring PsCPR (Table 1 above). […] No conversion of scoulerine was detected in the negative control. […]

scoulerine [2] = assay: CYP719s in GC1316 (integrated PsCPR and PsCFS) supplemented with scoulerine; format: cell-based, Saccharomyces cerevisiae
Excerpt: (§1) Plasmids harboring CYP719s were transformed into either GC1333 containing an integrated PsCPR (FIG. 10A) or GC1316 containing an integrated PsCPR and an integrated PsCFS (FIG. 10B). Strain GC1333, harboring PsCPR integrated into the chromosome, was transformed with pBOT plasmids, with GFP removed, harboring individual CYP719s (CYP719 EX41-105). (See Tables 7-8 below presenting the nature and activity of these CYP719s).
Plasmids harboring individual CYP719s were transformed into strain GC1316, which harbored PsCPR and PsCFS integrated into the genome. Strains were supplemented with scoulerine and after 16 hours total BIAs were extracted and the molar ratio was compared (FIG. 10B). The four possible BIAs that could be extracted were scoulerine, the single Ring A product nandinine, the single Ring B product cheilanthifoline, and the double Ring A, Ring B product stylopine.

scoulerine [3] = assay: CYP719 substrate affinity test on scoulerine in GC1333 (integrated PsCPR): Ring A / Ring B closure; format: cell-based, Saccharomyces cerevisiae; settings: single CYP719 with PsCPR, 16 hours
Protocol: To broadly identify CYP719 activities on BIAs, a substrate affinity test was performed with the protoberberine BIA scoulerine. CYP719s have been described to form methylenedioxy bridges on BIAs from an alcohol group and a methyl group on adjacent carbons. Two different rings can be made on scoulerine, which can be called “Ring A” and “Ring B”, with the BIA products being called “nandinine” and “cheilanthifoline”, respectively (see FIG. 19). CYP719-catalyzed formation of both Ring A and Ring B of scoulerine (“Ring A-closing activity” and “Ring B-closing activity”) has been identified and published. Certain CYP719 enzymes included in the affinity tests have published ring A and Ring B activities.
as §1
The resulting CYP719-harboring strains (strains SF41-105) were supplemented with scoulerine. After 16 hours, BIAs were extracted and the molar ratio of scoulerine to downstream BIAs was calculated (FIG. 10A).

Molecule | conversion of (S)-scoulerine by microsomal proteins (LC-MS products) [1] | conversion of scoulerine to the Ring A product nandinine (Ring A closure) (scoulerine [3]) | other results
B1 | – | – | conversion of nandinine to stylopine (nandinine): > 98%
B2 | converted to cheilanthifoline and stylopine | – | –
B3 | converted to cheilanthifoline | – | conversion of scoulerine to cheilanthifoline (scoulerine [2]; PsCFS alone in GC1316): 100%; activity on nandinine (scoulerine [2]; inferred from residual nandinine in GC1316 strains): little to no activity on nandinine; conversion of nandinine to stylopine (nandinine; nandinine generated in vivo from scoulerine, in TE): 12%
B4 | – | 66% | –
B5 | – | 90% | –
